Test results reported in patent US20250230251A1 (Bristol-Myers Squibb, published 2025).

Target: T1, human IL-18Rβ on cells (human, UniProt O95256 20-599)
T1 sequence: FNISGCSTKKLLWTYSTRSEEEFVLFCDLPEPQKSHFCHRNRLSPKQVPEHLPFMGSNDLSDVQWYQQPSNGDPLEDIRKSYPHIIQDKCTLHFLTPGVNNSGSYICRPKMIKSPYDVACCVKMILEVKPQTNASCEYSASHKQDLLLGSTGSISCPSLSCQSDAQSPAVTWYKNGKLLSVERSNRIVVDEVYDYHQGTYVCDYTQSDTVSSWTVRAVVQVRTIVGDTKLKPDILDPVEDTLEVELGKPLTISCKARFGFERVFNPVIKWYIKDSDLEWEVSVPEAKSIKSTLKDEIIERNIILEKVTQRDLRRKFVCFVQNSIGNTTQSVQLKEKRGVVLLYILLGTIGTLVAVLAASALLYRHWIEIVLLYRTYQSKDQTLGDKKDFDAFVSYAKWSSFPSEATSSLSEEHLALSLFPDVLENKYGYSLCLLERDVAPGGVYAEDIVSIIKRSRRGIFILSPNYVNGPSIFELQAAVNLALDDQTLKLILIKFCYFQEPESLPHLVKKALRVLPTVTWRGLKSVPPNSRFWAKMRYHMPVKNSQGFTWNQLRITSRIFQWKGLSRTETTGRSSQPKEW
Experiment: cell-based or functional assay

B1: P20-V1 (antibody, human IgG1, kappa, V domains shown)
VH: QVQLQESGPGLVKPSETLSLTCTVSGGSINNYYWSWIRQPPGKGLEWIGYIFYSGTTNYNPSLKSRVTISVDTSKNQFSLKLSSVTAADTAVYYCARDVGIAARNSYYYVMDVWGQGTTVTVSS
VL: AIQLTQSPSSLSASVGDRVTITCRASQGISSALAWYQQKPGKAPKFLIYEASSLESGVPSRFSGSGSGTDFTLTISSLQPEDFATYYCQQFNSYPITFGQGTRLEIKR
notes: Variant of P20
In the case of B1, the “Average IC50, IFNg, Crohn's disease LPLs, IL-18+IL-12” value is reported as 18.3 nM, the “Average IC50, IFNg, healthy (non-IBD) LPLs, IL-18+IL-12” value is reported as 39.8 nM and the “Average IC50, IFNg, ulcerative colitis LPLs, IL-18+IL-12” value is reported as 16.5 nM. For the same binder, the “IC50, IFNg, Crohn's disease LPLs, IL-18+IL-12, replicate 1” value was 3.82 nM, the “IC50, IFNg, Crohn's disease LPLs, IL-18+IL-12, replicate 2” value was 15.4 nM and the “IC50, IFNg, Crohn's disease LPLs, IL-18+IL-12, replicate 3” value was 89.9 nM. For the same binder, the “IC50, IFNg, Crohn's disease LPLs, IL-18+IL-12, replicate 4” value was 9.47 nM, the “IC50, IFNg, Crohn's disease LPLs, IL-18+IL-12, replicate 5” value was 19.6 nM and the “IC50, IFNg, Crohn's disease LPLs, IL-18+IL-12, replicate 6” value was 5.68 nM. For the same binder, the “IC50, IFNg, Crohn's disease LPLs, IL-18+IL-12, replicate 7” value was 0.9 nM, the “IC50, IFNg, Crohn's disease LPLs, IL-18+IL-12, replicate 8” value was 1.33 nM and the “IC50, IFNg, healthy (non-IBD) LPLs, IL-18+IL-12, replicate 1” value was 12.8 nM. The “IC50, IFNg, healthy (non-IBD) LPLs, IL-18+IL-12, replicate 2” value was 9.57 nM, the “IC50, IFNg, healthy (non-IBD) LPLs, IL-18+IL-12, replicate 3” value was 44.8 nM and the “IC50, IFNg, healthy (non-IBD) LPLs, IL-18+IL-12, replicate 4” value was 132 nM. The “IC50, IFNg, healthy (non-IBD) LPLs, IL-18+IL-12, replicate 5” value was 0.0116 nM, the “IC50, IFNg, ulcerative colitis LPLs, IL-18+IL-12, replicate 1” value was 34.4 nM and the “IC50, IFNg, ulcerative colitis LPLs, IL-18+IL-12, replicate 2” value was 10.8 nM. For the same binder, the “IC50, IFNg, ulcerative colitis LPLs, IL-18+IL-12, replicate 3” value was 10.3 nM, the “IC50, IFNg, ulcerative colitis LPLs, IL-18+IL-12, replicate 4” value was 2.63 nM and the “IC50, IFNg, ulcerative colitis LPLs, IL-18+IL-12, replicate 5” value was 0.0024 nM. For the same binder, the “IC50, IFNg, ulcerative colitis LPLs, IL-18+IL-12, replicate 6” value was 0.402 nM and the “IC50, IFNg, ulcerative colitis LPLs, IL-18+IL-12, replicate 7” value was 56.7 nM.
